One substance from patent publication US20110117602A1 can be followed below.

The target in assay [1] is HLA-DR on M8166 cells (human). The experiment in a line: FACS analysis, PE-labeled L243 on M8166 cells. In general terms: A flow cytometer gives signals particle by particle.
Assay [2] deals with HLA-DR on Daudi cells (human). The experiment in a line: FACS analysis, PE-labeled L243 on Daudi cells.

Sequence of L243 mouse monoclonal antibody to HLA-DR α chain (VH): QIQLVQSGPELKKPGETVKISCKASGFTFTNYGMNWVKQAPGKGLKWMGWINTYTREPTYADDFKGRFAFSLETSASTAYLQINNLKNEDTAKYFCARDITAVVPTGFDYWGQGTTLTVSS
Sequence of L243 mouse monoclonal antibody to HLA-DR α chain (VL): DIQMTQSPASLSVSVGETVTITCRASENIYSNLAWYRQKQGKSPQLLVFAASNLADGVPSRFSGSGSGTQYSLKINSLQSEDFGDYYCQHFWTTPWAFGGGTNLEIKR

As for “L243 mouse monoclonal antibody to HLA-DR α chain”, the values for the fluorescence as a fraction of that of S1T cells in assay [1] and in assay [2] were 0.01 and 0.1, respectively.
